# T1: recombinant human interleukin 1 alpha (IL-1α) (human, UniProt P01583 113-271)
# T1 sequence (looked up): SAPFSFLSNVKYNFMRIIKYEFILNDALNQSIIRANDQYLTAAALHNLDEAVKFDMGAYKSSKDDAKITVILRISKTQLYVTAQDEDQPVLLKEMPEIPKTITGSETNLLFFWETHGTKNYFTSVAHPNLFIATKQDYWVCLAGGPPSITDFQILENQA
# Molecular target: T1, recombinant human interleukin 1 alpha …
# Assay: cell-based or functional assay
binder,measurement,value
"XIA14 human monoclonal antibody (antibody, V domains shown) VH: QVQLVQSGAEVKKPGSSVKVSCKASGGRFTNYAILWVRQAPGQGLQWLGGIIPIFDETDHAQDFQDRLTITVDESMTTAYMELSSLRPEDTAIYYCATGSNSYYGLYWGQGTLVTVSS VL: not shown",HUVEC-based potency assay IC50 (ICAM-1 expression by flow cytometry),5 ng/mL

# Source: patent US20260132194A1 (XBIOTECH, published 2026)
